The text below walks through data of PMC5339705, “OGG1-DNA interactions facilitate NF-κB binding to DNA targets”.

Common to all, as to conditions: protein: commercial;commercial; tags: ;; copies: 1;1; label: 5' biotin on strand 2; blunt
The target in series [1] is T1, p65 (RelA);p50 (NF-kB1) (;, UniProt Q04206;P19838 1-551;1-433, |). Nature of the series: EMSA; with OGG1 4 ng; highest shifted amount of κB1 oligos; 10 mM Tris-HCl pH 8.0, 5 mM NaCl, 1 mM EDTA, 1 mM DTT, 0.1 mg/ml BSA, 0.1 µg/µl poly(dI-dC) (stated for NE reactions), 10 fmol probe, 10 µl, RT 5-10 min; 6% gel 0.5x TBE 4 °C. (A gel shift assay detects complexes by their altered migration in electrophoresis.)
T1 sequence (Q04206 whole entry, chain 1 of 2): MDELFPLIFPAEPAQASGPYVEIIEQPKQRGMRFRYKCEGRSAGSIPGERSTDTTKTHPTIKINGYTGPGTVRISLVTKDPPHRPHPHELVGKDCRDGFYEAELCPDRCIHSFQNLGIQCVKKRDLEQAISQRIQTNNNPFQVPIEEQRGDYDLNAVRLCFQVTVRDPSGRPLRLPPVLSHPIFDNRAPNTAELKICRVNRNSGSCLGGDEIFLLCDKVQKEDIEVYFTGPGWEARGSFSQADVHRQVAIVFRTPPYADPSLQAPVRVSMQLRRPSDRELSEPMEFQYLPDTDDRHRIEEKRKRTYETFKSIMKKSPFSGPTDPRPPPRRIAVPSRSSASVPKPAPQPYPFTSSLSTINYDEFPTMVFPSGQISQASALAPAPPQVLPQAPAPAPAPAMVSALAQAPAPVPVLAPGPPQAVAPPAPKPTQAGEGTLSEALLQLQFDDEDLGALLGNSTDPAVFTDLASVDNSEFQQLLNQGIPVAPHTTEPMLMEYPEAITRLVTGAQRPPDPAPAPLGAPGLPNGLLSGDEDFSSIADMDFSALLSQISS
T1 sequence (P19838 1-433, chain 2 of 2): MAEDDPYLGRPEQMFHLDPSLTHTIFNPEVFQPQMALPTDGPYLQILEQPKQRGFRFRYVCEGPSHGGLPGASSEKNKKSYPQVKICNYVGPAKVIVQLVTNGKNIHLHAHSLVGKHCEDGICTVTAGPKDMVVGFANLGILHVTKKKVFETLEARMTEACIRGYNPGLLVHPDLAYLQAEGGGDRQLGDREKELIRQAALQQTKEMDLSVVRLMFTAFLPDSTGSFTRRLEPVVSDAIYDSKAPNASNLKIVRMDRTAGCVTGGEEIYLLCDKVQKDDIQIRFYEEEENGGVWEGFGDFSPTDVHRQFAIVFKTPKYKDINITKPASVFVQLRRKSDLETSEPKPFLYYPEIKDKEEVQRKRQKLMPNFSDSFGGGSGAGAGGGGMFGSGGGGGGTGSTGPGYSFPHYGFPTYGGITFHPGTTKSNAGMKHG

Series [2] addresses T1, p65 (RelA);p50 (NF-kB1). Put plainly: EMSA; with OGG1 4 ng; higher than Wt; 10 mM Tris-HCl pH 8.0, 5 mM NaCl, 1 mM EDTA, 1 mM DTT, 0.1 mg/ml BSA, 0.1 µg/µl poly(dI-dC) (stated for NE reactions), 10 fmol probe, 10 µl, RT 5-10 min; 6% gel 0.5x TBE 4 °C.
Series [3] concerns the target T1, p65 (RelA);p50 (NF-kB1). Nature of the series: EMSA; no OGG1; complex from 5 min; 10 mM Tris-HCl pH 8.0, 5 mM NaCl, 1 mM EDTA, 1 mM DTT, 0.1 mg/ml BSA, 0.1 µg/µl poly(dI-dC) (stated for NE reactions), 10 fmol probe, 10 µl, RT 5-10 min; 6% gel 0.5x TBE 4 °C.

B1: κB1-G3 (dsDNA)
DNA 1: TTCCCTGGTCCCCGGGCTTTTCCAGACATCG
DNA 2: CGATGTCTGGAAAAGCCCGGGGACCAGGGAA
modifications: 8-oxoG at strand 2 position 27 (opposite C5 of strand 1)
Take B1: the binding result in series [1] is reported as “binds”.

B2: κB2-G3 (dsDNA)
DNA 1: TGAGGGGACCCTGAGCTCAGGGAATTTCCCTGG
DNA 2: CCAGGGAAATTCCCTGAGCTCAGGGTCCCCTCA
modifications: 8-oxoG at strand 1 position 4 (number label read as following the base)
For the molecule B2, the binding result in series [2] is “binds”.

B3: κB2-G6 (dsDNA)
DNA 1: B2 DNA 1
DNA 2: B2 DNA 2
modifications: 8-oxoG at strand 2 position 23 (opposite C11 of strand 1)
As to B3, the binding result in series [2] was “binds”.

B4: κB2-Wt (dsDNA)
DNA 1: B2 DNA 1
DNA 2: B2 DNA 2
For B4, the binding result in series [3] is “binds”.

B5: κB2-G4 (dsDNA)
DNA 1: B2 DNA 1
DNA 2: B2 DNA 2
modifications: 8-oxoG at strand 1 position 7
On to B5, for which the binding result in series [2] is given as “binds”.
